{"source": "patent US8715970B2", "about": "“Enzymatically catalyzed method of preparing mono-acylated polyols” (BASF SE, priority 2009, dated 2014)", "molecules": {"B1": {"name": "WT: non-mutated Candida antarctica lipase B (CALB), SEQ ID NO: 2, immobilized on carrier beads (protein, listed as Candida antarctica)", "chain": "LPSGSDPAFSQPKSVLDAGLTCQGASPSSVSKPILLVPGTGTTGPQSFDSNWIPLSAQLGYTPCWISPPPFMLNDTQVNTEYMVNAITTLYAGSGNNKLPVLTWSQGGLVAQWGLTFFPSIRSKVDRLMAFAPDYKGTVLAGPLDALAVSAPSVWQQTTGSALTTALRNAGGLTQIVPTTNLYSATDEIVQPQVSNSPLDSSYLFNGKNVQAQAVCGPLFVIDHAGSLTSQFSYVVGRSALRSTTGQARSADYGITDCNPLPANDLTPEQKVAAAALLAPAAAAIVAGPKQNCEPDLMPYARPFAVGKRTCSGIVTP", "modifications": "immobilized on carrier beads"}, "B2": {"name": "T40A: CALB mutant with single mutation Thr40Ala (SEQ ID NO: 4) (protein)", "chain": "B1 chain with T40X", "modifications": "T40 Mutant"}}, "format_in_all_cases": "biochemical", "key": {"[1]": {"experiment": "Active site titration with inhibitor and activity measurement after inhibition (Example 1)", "details": "for Share of immobilized enzyme inhibited (activity measurements after inhibition): 50 μM inhibitor in acetonitrile, activity with 1-butanol and vinyl butyrate in MTBE", "protocol": "The amount of enzyme loaded on the carriers was confirmed by active site titration using the inhibitor methyl 4-methylumbelliferyl hexylphosphonate. Inhibitor from an ampoule stored in a freezer (−20° C.) was dissolved to a concentration of 50 μM in acetonitrile. The inhibitor was previously synthesized and used for active site titration of CALB as described in Magnusson, A. O., et al., Creating space for large secondary alcohols by rational redesign of Candida antarctica lipase B. Chembiochem, 2005. 6(6): p. 1051-1056 and Rotticci, D., et al., An active-site titration method for lipases. Biochimica Et Biophysica Acta-Molecular and Cell Biology of Lipids, 2000. 1483(1): p. 132-140.\nInhibition reactions were run in three separate vials each containing 50 mg enzyme carrier beads with immobilized CALB wild type and T40A-mutant. The wild type was run in one of the reaction vials, and the other two contained T40A-mutant. The enzymes were incubated in 1 ml of 50 μM inhibitor dissolved in acetonitrile. Each vial were sealed and covered in aluminium foil, to prevent light from damaging the fluorophore, and stored in continuous end over end. Aliquots were taken after 2, 5 and 9 days. […] Analysis was preformed by fluorescence using a Perkin Elmer LS 50 B fluorimeter. […] Fluorescence was also measured in two different control samples. Inhibitor, 50 μM in acetonitrile, was incubated without enzyme for control of background fluorescence from spontaneous hydrolysis of the methyl 4-methylumbelliferyl hexylphosphonate. In addition to this, 50 mg of each enzyme was incubated in acetonitrile without inhibitor for control of any background fluorescence from the immobilized enzyme. The total fluorescence from these samples was subtracted from the fluorescence measured in the inhibition reactions. […]\nRemaining activity was measured after inhibition. […] For comparison, the reaction was repeated with the enzyme used for control of background fluorescence. […] The amounts of immobilized enzymes taken from the fluorescence controls used in the reactions were 2.8 mg of the wild type and 9.0 T40A. […]"}, "[2]": {"experiment": "Enzyme-catalyzed acylation of 1,2-ethanediol with ethyl acetate as acyl donor (Example 2)", "details": "for Maximum monoester yield: 1,2-ethanediol 20 mM in ethyl acetate (acyl donor and solvent), 29° C.; for Conversion at 3:1 (monoester:diester) / Conversion at 9:1 (monoester:diester): 1,2-ethanediol 20 mM in ethyl acetate; for Conversion at 3:1 (monoester:diester): product distribution 75%; for Conversion at 9:1 (monoester:diester): product distribution 90%", "protocol": "(§1) Each diol was dissolved to a concentration of 20 mM together with 5 mM of 3-hexanone in ethyl acetate, ≧99% from Fluka, which was used as acyl donor and solvent. Reactions were started by adding 4 ml reaction solution to 20 mg enzyme carrier beads loaded with either wild-type or T40A mutated CALB. Reactions were run at 29° C. on a HLC rotating thermo block. Aliquots of 50 μl were taken, filtered through wool in a Pasteur pipette and diluted with 50 μl ethyl acetate prior to analysis. The 3-hexanon used as internal standard were present in the reaction solution throughout both reaction and analysis.\n(§2) 5 mM 3-hexanone was used as internal standard in the reaction mixtures together with 20 mM diol. Aliquots were taken during the reaction by taking 50 μl of reaction sample. The samples were filtered though wool together with 50 μl ethyl acetate, thereby any remaining enzyme were removed and the reaction samples were diluted by a factor of 2 prior to analysis.\n(§3) The reactions catalyzed by the T40A-mutant were rerun with 100 mg enzyme carrier beads for determination of maximum monoester yield. The reactions with 2-methyl-1,3-propanediol and 2-phenyl-1,3-propanediol were rerun at 100 mM concentration of diol and 50 mg enzyme carrier beads, both with CALB wild type and CALB T40A-mutant. This was done in order to determine the enantiomeric excess.\n(§4) All reactions were analyzed on GC, Hewlett Packard 5890 series II. Two different 25 m×0.32 mm WCOT fused silica columns were used, depending on the different substrates and products that were analyzed. A polar GC-column with CP Chirasil-Dex CB coating was used for the reactions with 1,2-ethanediol and 1,3-propanediol. A non-polar GC-column with CP-SIL 5CB coating was used for the reactions with 1,4-butanediol, 2-methyl-1,3-propanediol and 2-phenyl-1,3-propanediol.\n(§5) The response factor for each diol was determined in relationship to 3-hexanone. When all diol and mono-ester had converted to di-ester, the response factor for the di-ester could be determined in relationship to […]. The concentration of mono-ester in each reaction was determined by subtracting the concentration of di-ester from the starting concentration of diol.\n(§6) A great difference in concentration between acyl donor and diol was accomplished in the reactions by using ethyl acetate as solvent and acyldonor and a diol concentration of 20 mM. Therefore the reactions was considered to irreversible, following the reaction scheme:\n(§7) [formula] A, B and C corresponds to diol, monoester and diester, respectively. k1 and k2 respectively corresponds to the reaction rates of the acylation of diol and monoester.\n(§8) The reaction rates are dependent on enzyme concentrations and the kcat/KM towards the substrates. By fitting the concentrations measured over time into the equations and using the enzyme concentration determined by active site titration, the following results were obtained."}, "[3]": {"experiment": "Enzyme-catalyzed acylation of 1,4-butanediol with ethyl acetate as acyl donor (Example 2)", "details": "for Conversion at 3:1 (monoester:diester) / Conversion at 9:1 (monoester:diester) / Maximum monoester yield: 1,4-butanediol 20 mM in ethyl acetate; for Maximum monoester yield: 29° C.", "protocol": "as §1, §2, §3, §4, §5, §6, §7, §8"}, "[4]": {"experiment": "Enzyme-catalyzed acylation of 2-methyl-1,3-propanediol with ethyl acetate as acyl donor (Example 2)", "details": "for Conversion at 3:1 (monoester:diester) / Maximum monoester yield: 2-Me-1,3-propanediol 20 mM in ethyl acetate; for Maximum monoester yield: 29° C.", "protocol": "as §1, §2, §3, §4, §5, §6, §7, §8"}, "[5]": {"details": "2-methyl-1,3-propanediol, ethyl acetate"}}, "note": "Where a chain is given by its changes, count along the chain named. Numbers in names are those of the source.", "data": [{"molecule": "B1", "values": [{"measurement": "Share of immobilized enzyme inhibited (activity measurements after inhibition)", "setting": "[1]", "value": 83, "unit": "%"}, {"measurement": "Maximum monoester yield", "setting": "[2]", "value": 43, "unit": "%"}, {"measurement": "Maximum monoester yield", "setting": "[2]; listed as wild type", "value": 43, "unit": "%"}, {"measurement": "Conversion at 3:1 (monoester:diester)", "setting": "[2]", "value": 17, "unit": "%"}, {"measurement": "Conversion at 3:1 (monoester:diester)", "setting": "[2]; listed as wild type", "value": 17, "unit": "%"}, {"measurement": "Conversion at 9:1 (monoester:diester)", "setting": "[2]", "value": "<9", "unit": "%"}, {"measurement": "Conversion at 9:1 (monoester:diester)", "setting": "[2]; listed as wild type", "value": 9, "unit": "%"}, {"measurement": "Selectivity diol/monoester", "setting": "[2]; 1,2-ethanediol, ethyl acetate", "value": 1.9}, {"measurement": "Conversion at 3:1 (monoester:diester)", "setting": "[3]", "value": "<5", "unit": "%"}, {"measurement": "Conversion at 9:1 (monoester:diester)", "setting": "[3]", "value": "<5", "unit": "%"}, {"measurement": "Maximum monoester yield", "setting": "[3]", "value": 25, "unit": "%"}, {"measurement": "Selectivity diol/monoester", "setting": "[3]; 1,4-butanediol, ethyl acetate, listed as wild type", "value": 0.63}, {"measurement": "Selectivity diol/monoester", "setting": "[3]; 1,4-butanediol, ethyl acetate, listed as wild type CALB", "value": 0.6}, {"measurement": "Conversion at 3:1 (monoester:diester)", "setting": "[4]", "value": 30, "unit": "%"}, {"measurement": "Maximum monoester yield", "setting": "[4]", "value": 42, "unit": "%"}, {"measurement": "Selectivity diol/monoester", "setting": "[4]; [5]", "value": 1.5}]}, {"molecule": "B2", "values": [{"measurement": "Share of immobilized enzyme inhibited (activity measurements after inhibition)", "setting": "[1]", "value": 21, "unit": "%"}, {"measurement": "Remaining activity after inhibition", "setting": "[1]; 100 mM 1-butanol, 1 M vinyl butyrate in MTBE", "value": "to low to measure"}, {"measurement": "Maximum monoester yield", "setting": "[2]", "value": 77, "unit": "%"}, {"measurement": "Conversion at 3:1 (monoester:diester)", "setting": "[2]", "value": 99, "unit": "%"}, {"measurement": "Conversion at 3:1 (monoester:diester)", "setting": "[2]; listed as T40A CALB", "value": 99, "unit": "%"}, {"measurement": "Conversion at 9:1 (monoester:diester)", "setting": "[2]", "value": 78, "unit": "%"}, {"measurement": "Conversion at 9:1 (monoester:diester)", "setting": "[2]; listed as T40A CALB", "value": 78, "unit": "%"}, {"measurement": "Selectivity diol/monoester", "setting": "[2]; 1,2-ethanediol, ethyl acetate", "value": 7.7}, {"measurement": "Selectivity ratio diol/monoester T40A/WT", "setting": "[2]; 1,2-ethanediol, ethyl acetate", "value": 4.0}, {"measurement": "Selectivity diol/monoester", "setting": "[2]; 1,2-ethanediol, ethyl acetate, listed as T40A CALB", "value": 7.6}, {"measurement": "Conversion at 3:1 (monoester:diester)", "setting": "[3]", "value": 64, "unit": "%"}, {"measurement": "Conversion at 9:1 (monoester:diester)", "setting": "[3]", "value": 26, "unit": "%"}, {"measurement": "Maximum monoester yield", "setting": "[3]", "value": 49, "unit": "%"}, {"measurement": "Selectivity diol/monoester", "setting": "[3]; 1,4-butanediol, ethyl acetate", "value": 1.8}, {"measurement": "Selectivity ratio diol/monoester T40A/WT", "setting": "[3]; 1,4-butanediol, ethyl acetate", "value": 2.9}, {"measurement": "Selectivity diol/monoester", "setting": "[3]; 1,4-butanediol, ethyl acetate, listed as T40A CALB", "value": 1.9}, {"measurement": "Conversion at 3:1 (monoester:diester)", "setting": "[4]", "value": 55, "unit": "%"}, {"measurement": "Maximum monoester yield", "setting": "[4]", "value": 55, "unit": "%"}, {"measurement": "Selectivity diol/monoester", "setting": "[4]; [5]", "value": 2.6}, {"measurement": "Selectivity ratio diol/monoester T40A/WT", "setting": "[4]; [5]", "value": 1.7}, {"measurement": "Selectivity diol/monoester", "setting": "[4]; 2-methyl-1,3-propanediol, ethyl acetate, listed as T40A CALB", "value": 2.5}]}]}
